# Reference: PMC11171812
# Target: recombinant Plasmodium knowlesi lactate dehydrogenase (Plasmodium knowlesi)
# Experiment: native gel or EMSA; PAGE under native (non-reducing) conditions, 2 ug purified PkLDH in native sample buffer without SDS, 10% polyacrylamide gel without SDS, Coomassie Brilliant Blue R-250; single band between 135 and 180 kDa (monomer ~35.0 kDa on SDS-PAGE)
substance,measurement,value
recombinant Plasmodium knowlesi lactate dehydrogenase (enzyme),stoichiometry N,4
